The record followed here is article PMC2116111.

This experiment concerns the target 420-kD polypeptide (human alpha 2-macroglobulin receptor) (human (endogenous in placenta)) (UniProt Q07954). In words: ELISA.

pKd: −log10 of the molar value.

UniProt Q07954, sequence (Q07954 20-4544): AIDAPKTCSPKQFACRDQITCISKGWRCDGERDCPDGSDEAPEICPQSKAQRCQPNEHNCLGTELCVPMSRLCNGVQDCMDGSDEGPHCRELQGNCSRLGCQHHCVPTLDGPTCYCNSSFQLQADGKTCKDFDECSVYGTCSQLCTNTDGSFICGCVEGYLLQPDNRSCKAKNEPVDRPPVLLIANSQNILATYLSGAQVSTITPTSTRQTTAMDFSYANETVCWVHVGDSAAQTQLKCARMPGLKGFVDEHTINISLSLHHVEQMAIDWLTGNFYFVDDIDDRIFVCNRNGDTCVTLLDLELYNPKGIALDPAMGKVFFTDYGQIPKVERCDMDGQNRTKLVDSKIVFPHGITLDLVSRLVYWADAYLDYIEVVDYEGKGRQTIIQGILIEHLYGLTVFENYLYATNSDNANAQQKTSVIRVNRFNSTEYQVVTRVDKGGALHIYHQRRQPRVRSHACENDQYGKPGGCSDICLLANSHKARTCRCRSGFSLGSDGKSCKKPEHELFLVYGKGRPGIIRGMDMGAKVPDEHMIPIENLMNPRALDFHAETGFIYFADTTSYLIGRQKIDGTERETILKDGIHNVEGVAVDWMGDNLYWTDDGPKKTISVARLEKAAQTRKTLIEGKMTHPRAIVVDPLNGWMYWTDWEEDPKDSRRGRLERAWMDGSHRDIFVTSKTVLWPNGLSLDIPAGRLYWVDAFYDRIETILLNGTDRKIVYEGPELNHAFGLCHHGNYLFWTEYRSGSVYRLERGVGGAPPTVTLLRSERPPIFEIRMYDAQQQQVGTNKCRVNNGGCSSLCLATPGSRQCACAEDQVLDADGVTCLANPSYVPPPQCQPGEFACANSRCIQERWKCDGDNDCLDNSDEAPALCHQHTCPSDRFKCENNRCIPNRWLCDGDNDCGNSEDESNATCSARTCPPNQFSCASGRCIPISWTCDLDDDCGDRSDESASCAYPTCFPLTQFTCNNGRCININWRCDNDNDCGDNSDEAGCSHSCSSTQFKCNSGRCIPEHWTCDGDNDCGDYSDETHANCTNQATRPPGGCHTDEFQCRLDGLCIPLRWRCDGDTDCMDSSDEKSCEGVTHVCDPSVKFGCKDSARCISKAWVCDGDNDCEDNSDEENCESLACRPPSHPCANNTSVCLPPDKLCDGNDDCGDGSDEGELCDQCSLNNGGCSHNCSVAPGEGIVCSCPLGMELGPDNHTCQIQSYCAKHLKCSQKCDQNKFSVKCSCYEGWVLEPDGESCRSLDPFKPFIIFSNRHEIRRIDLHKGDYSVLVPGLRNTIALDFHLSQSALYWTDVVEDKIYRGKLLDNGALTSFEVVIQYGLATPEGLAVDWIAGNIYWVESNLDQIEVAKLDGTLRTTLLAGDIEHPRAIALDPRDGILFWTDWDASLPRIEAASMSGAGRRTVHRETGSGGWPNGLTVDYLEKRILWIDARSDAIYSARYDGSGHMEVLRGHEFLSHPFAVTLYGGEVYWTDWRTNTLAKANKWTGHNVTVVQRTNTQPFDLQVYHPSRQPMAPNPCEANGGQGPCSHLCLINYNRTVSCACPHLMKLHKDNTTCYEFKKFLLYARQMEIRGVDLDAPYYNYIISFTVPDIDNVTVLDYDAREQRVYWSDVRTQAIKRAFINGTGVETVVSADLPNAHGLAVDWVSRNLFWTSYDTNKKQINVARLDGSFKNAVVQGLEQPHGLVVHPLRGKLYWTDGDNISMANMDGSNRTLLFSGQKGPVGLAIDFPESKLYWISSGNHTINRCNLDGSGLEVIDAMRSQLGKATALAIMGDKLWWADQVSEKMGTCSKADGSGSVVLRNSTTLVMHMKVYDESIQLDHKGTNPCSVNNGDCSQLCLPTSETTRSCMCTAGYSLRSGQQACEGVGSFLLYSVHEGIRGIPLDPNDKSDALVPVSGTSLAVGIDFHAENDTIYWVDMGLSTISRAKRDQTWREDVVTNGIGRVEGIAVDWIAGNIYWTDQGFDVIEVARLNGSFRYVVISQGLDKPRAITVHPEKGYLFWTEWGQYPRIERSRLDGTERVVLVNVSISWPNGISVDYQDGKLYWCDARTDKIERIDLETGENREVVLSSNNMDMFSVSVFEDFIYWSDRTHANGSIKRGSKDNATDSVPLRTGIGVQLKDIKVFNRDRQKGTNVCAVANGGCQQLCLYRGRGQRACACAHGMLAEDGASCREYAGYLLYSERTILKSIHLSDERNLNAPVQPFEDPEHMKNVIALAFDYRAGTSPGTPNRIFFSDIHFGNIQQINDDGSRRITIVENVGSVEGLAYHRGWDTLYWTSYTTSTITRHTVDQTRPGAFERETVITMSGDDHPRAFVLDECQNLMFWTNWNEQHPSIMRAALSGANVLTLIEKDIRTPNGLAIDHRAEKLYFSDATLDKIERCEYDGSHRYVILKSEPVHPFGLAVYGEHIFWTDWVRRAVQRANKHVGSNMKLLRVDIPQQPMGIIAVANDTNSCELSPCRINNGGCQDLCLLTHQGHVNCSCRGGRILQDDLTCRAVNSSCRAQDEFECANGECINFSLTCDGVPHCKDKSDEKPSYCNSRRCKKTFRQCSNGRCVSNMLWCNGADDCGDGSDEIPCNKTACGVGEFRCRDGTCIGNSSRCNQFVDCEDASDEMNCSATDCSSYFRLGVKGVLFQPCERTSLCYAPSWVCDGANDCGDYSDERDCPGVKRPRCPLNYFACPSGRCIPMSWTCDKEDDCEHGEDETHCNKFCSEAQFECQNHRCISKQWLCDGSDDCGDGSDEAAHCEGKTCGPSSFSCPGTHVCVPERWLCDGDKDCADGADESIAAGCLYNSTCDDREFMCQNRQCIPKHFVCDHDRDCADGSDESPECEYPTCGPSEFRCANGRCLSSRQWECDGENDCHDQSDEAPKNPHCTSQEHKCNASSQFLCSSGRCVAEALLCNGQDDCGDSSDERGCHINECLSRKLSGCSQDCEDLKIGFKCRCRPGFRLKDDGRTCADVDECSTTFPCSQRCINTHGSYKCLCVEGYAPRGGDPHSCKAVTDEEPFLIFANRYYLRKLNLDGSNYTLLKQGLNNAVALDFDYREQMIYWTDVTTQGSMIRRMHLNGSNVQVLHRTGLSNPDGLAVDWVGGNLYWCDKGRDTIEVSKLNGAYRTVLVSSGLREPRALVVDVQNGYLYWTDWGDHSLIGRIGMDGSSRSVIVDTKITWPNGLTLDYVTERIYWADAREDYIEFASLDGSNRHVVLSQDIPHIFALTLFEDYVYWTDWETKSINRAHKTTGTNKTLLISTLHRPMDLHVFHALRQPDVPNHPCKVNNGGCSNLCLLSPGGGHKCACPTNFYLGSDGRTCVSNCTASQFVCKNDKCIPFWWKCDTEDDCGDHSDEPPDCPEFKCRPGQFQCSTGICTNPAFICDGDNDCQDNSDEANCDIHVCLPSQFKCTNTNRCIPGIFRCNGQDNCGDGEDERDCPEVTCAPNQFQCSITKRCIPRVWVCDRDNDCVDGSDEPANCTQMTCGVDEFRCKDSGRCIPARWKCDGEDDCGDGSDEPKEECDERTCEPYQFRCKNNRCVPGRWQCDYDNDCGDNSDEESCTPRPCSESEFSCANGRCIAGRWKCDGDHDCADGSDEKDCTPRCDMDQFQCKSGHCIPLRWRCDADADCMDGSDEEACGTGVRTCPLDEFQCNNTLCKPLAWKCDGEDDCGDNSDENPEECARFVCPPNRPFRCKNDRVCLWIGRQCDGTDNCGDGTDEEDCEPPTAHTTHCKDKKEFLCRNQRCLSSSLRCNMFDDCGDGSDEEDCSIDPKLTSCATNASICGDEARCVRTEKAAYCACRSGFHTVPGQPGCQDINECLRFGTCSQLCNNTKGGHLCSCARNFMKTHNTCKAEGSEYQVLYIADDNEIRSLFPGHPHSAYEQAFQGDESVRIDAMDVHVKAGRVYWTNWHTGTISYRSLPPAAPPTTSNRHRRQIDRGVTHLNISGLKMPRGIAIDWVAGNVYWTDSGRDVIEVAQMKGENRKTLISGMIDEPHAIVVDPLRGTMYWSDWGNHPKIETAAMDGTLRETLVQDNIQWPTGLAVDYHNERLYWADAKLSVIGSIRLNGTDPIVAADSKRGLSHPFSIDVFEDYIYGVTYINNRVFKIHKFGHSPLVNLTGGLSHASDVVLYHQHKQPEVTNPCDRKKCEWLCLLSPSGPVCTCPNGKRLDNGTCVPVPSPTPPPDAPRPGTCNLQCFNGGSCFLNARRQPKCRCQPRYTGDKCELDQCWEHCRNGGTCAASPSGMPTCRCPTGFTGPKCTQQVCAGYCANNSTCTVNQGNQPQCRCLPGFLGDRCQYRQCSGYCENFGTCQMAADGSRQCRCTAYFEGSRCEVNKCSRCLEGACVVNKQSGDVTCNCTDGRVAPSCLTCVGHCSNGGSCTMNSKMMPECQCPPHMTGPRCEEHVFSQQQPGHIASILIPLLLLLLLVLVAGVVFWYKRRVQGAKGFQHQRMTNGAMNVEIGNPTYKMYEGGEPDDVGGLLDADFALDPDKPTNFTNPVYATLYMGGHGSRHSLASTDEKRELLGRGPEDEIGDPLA

“alpha 2-macroglobulin-trypsin complex (from UniProt P01023 24-1474)”: the pKd (usually −log10 of the Kd, conventionally taken in molar units) is 7.15.
